Reference: patent US20180155451A1 (published 2018)

Assays:
[1] = molecular target: T1, FcγRIIIa extracellular domain with C-terminal His tag (human, UniProt P08637 17-208); assay: SPR (Biacore), antibody captured, FcγR as analyte; He Ab binding / GpH7-A5/GpH7-B3/GpL16-k0 binding x 100
T1 construct: extracellular domain; also called FcgRIIIa; 3a; not shown: His tag at the C terminus

[2] = molecular target: T2, FcγRIIb extracellular domain with C-terminal His tag (human, UniProt P31994 43-217); assay: as above
T2 construct: extracellular domain; also called FcgRIIb; 2b; not shown: His tag at the C terminus
T2 sequence (looked up): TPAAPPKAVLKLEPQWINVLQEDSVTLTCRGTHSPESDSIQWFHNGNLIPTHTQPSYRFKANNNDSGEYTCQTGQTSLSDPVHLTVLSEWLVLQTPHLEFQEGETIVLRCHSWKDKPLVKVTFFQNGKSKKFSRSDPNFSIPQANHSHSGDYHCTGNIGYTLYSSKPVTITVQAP

[3] = molecular target: T1, FcγRIIIa extracellular domain with …; assay: SPR (Biacore); ratio of He/Con_3a (FcγRIIIa) to He/Con_2b (FcγRIIb)
Summary of the method: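 Antibodies with one altered H chain, captured on antigen-peptide chips, were tested against activating and inhibitory FcγRs by SPR. Running buffer HBS-EP+, 25 °C; 10 mM glycine-HCl, pH 1.5 regenerated the surface.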

T1 sequence (P08637 17-208): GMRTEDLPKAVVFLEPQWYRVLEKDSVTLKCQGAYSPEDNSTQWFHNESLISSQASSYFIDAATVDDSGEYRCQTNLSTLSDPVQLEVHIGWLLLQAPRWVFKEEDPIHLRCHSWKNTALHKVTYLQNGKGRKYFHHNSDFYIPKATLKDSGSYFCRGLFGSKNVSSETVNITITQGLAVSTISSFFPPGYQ

Binder	He/Con_3a (IIIa binding) [1]	He/Con_2b (IIb binding) [2]	He_3a/2b (IIIa/IIb) [3]
GpH7-A5/GpH7-B3 variant S298_07I/GpL16-k0 (antibody, human IgG1, kappa, position is EU numbering; also called He Ab) heavy 1: not shown heavy 2: not shown light: DIVMTQSPLSLPVTPGEPASISCQASESLVHSNRNTYLHWYLQKPGQSPQLLIYKVSNRFSGVPDRFSGSGSGTDFTLKISRVEAEDVGVYYCSQNTHVPPTFGQGTKVEIERTVAAPSVFIFPPSDEQLKSGTASVVCLLNNFYPREAKVQWKVDNALQSGNSQESVTEQDSKDSTYSLSSTLTLSKADYEKHKVYACEVTHQGLSSPVTKSFNRGEC	96.4 relative, control = 100	70.6 relative, control = 100	1.37 ratio
GpH7-A5/GpH7-B3 variant S298_16H/GpL16-k0 (antibody, human IgG1, kappa, position is EU numbering; also called He Ab) heavy 1: not shown heavy 2: not shown light: DIVMTQSPLSLPVTPGEPASISCQASESLVHSNRNTYLHWYLQKPGQSPQLLIYKVSNRFSGVPDRFSGSGSGTDFTLKISRVEAEDVGVYYCSQNTHVPPTFGQGTKVEIERTVAAPSVFIFPPSDEQLKSGTASVVCLLNNFYPREAKVQWKVDNALQSGNSQESVTEQDSKDSTYSLSSTLTLSKADYEKHKVYACEVTHQGLSSPVTKSFNRGEC	76.5 relative, control = 100	63.5 relative, control = 100	1.2 ratio
GpH7-A5/GpH7-B3 variant S324_02A/GpL16-k0 (antibody, human IgG1, kappa, position is EU numbering; also called He Ab) heavy 1: not shown heavy 2: not shown light: DIVMTQSPLSLPVTPGEPASISCQASESLVHSNRNTYLHWYLQKPGQSPQLLIYKVSNRFSGVPDRFSGSGSGTDFTLKISRVEAEDVGVYYCSQNTHVPPTFGQGTKVEIERTVAAPSVFIFPPSDEQLKSGTASVVCLLNNFYPREAKVQWKVDNALQSGNSQESVTEQDSKDSTYSLSSTLTLSKADYEKHKVYACEVTHQGLSSPVTKSFNRGEC	104 relative, control = 100	78.3 relative, control = 100	1.33 ratio
GpH7-A5/GpH7-B3 variant Y300_08L/GpL16-k0 (antibody, human IgG1, kappa, position is EU numbering; also called He Ab) heavy 1: not shown heavy 2: not shown light: DIVMTQSPLSLPVTPGEPASISCQASESLVHSNRNTYLHWYLQKPGQSPQLLIYKVSNRFSGVPDRFSGSGSGTDFTLKISRVEAEDVGVYYCSQNTHVPPTFGQGTKVEIERTVAAPSVFIFPPSDEQLKSGTASVVCLLNNFYPREAKVQWKVDNALQSGNSQESVTEQDSKDSTYSLSSTLTLSKADYEKHKVYACEVTHQGLSSPVTKSFNRGEC	105 relative, control = 100	73.6 relative, control = 100	1.43 ratio
GpH7-A5/GpH7-B3 variant S298_09D/GpL16-k0 (antibody, human IgG1, kappa, position is EU numbering; also called He Ab) heavy 1: not shown heavy 2: not shown light: DIVMTQSPLSLPVTPGEPASISCQASESLVHSNRNTYLHWYLQKPGQSPQLLIYKVSNRFSGVPDRFSGSGSGTDFTLKISRVEAEDVGVYYCSQNTHVPPTFGQGTKVEIERTVAAPSVFIFPPSDEQLKSGTASVVCLLNNFYPREAKVQWKVDNALQSGNSQESVTEQDSKDSTYSLSSTLTLSKADYEKHKVYACEVTHQGLSSPVTKSFNRGEC	66.7 relative, control = 100	48.3 relative, control = 100	1.38 ratio
GpH7-A5/GpH7-B3 variant S298_15Y/GpL16-k0 (antibody, human IgG1, kappa, position is EU numbering; also called He Ab) heavy 1: not shown heavy 2: not shown light: DIVMTQSPLSLPVTPGEPASISCQASESLVHSNRNTYLHWYLQKPGQSPQLLIYKVSNRFSGVPDRFSGSGSGTDFTLKISRVEAEDVGVYYCSQNTHVPPTFGQGTKVEIERTVAAPSVFIFPPSDEQLKSGTASVVCLLNNFYPREAKVQWKVDNALQSGNSQESVTEQDSKDSTYSLSSTLTLSKADYEKHKVYACEVTHQGLSSPVTKSFNRGEC	85.6 relative, control = 100	61.4 relative, control = 100	1.39 ratio
GpH7-A5/GpH7-B3 variant S324_01G/GpL16-k0 (antibody, human IgG1, kappa, position is EU numbering; also called He Ab) heavy 1: not shown heavy 2: not shown light: DIVMTQSPLSLPVTPGEPASISCQASESLVHSNRNTYLHWYLQKPGQSPQLLIYKVSNRFSGVPDRFSGSGSGTDFTLKISRVEAEDVGVYYCSQNTHVPPTFGQGTKVEIERTVAAPSVFIFPPSDEQLKSGTASVVCLLNNFYPREAKVQWKVDNALQSGNSQESVTEQDSKDSTYSLSSTLTLSKADYEKHKVYACEVTHQGLSSPVTKSFNRGEC	105 relative, control = 100	81.1 relative, control = 100	1.29 ratio
GpH7-A5/GpH7-B3 variant S324_11K/GpL16-k0 (antibody, human IgG1, kappa, position is EU numbering; also called He Ab) heavy 1: not shown heavy 2: not shown light: DIVMTQSPLSLPVTPGEPASISCQASESLVHSNRNTYLHWYLQKPGQSPQLLIYKVSNRFSGVPDRFSGSGSGTDFTLKISRVEAEDVGVYYCSQNTHVPPTFGQGTKVEIERTVAAPSVFIFPPSDEQLKSGTASVVCLLNNFYPREAKVQWKVDNALQSGNSQESVTEQDSKDSTYSLSSTLTLSKADYEKHKVYACEVTHQGLSSPVTKSFNRGEC	83 relative, control = 100	68.6 relative, control = 100	1.21 ratio
GpH7-A5/GpH7-B3 variant S324_10E/GpL16-k0 (antibody, human IgG1, kappa, position is EU numbering; also called He Ab) heavy 1: not shown heavy 2: not shown light: DIVMTQSPLSLPVTPGEPASISCQASESLVHSNRNTYLHWYLQKPGQSPQLLIYKVSNRFSGVPDRFSGSGSGTDFTLKISRVEAEDVGVYYCSQNTHVPPTFGQGTKVEIERTVAAPSVFIFPPSDEQLKSGTASVVCLLNNFYPREAKVQWKVDNALQSGNSQESVTEQDSKDSTYSLSSTLTLSKADYEKHKVYACEVTHQGLSSPVTKSFNRGEC	99.3 relative, control = 100	77.4 relative, control = 100	1.28 ratio
GpH7-A5/GpH7-B3 variant Y300_01G/GpL16-k0 (antibody, human IgG1, kappa, position is EU numbering; also called He Ab) heavy 1: not shown heavy 2: not shown light: DIVMTQSPLSLPVTPGEPASISCQASESLVHSNRNTYLHWYLQKPGQSPQLLIYKVSNRFSGVPDRFSGSGSGTDFTLKISRVEAEDVGVYYCSQNTHVPPTFGQGTKVEIERTVAAPSVFIFPPSDEQLKSGTASVVCLLNNFYPREAKVQWKVDNALQSGNSQESVTEQDSKDSTYSLSSTLTLSKADYEKHKVYACEVTHQGLSSPVTKSFNRGEC	81.6 relative, control = 100	48.4 relative, control = 100	1.69 ratio
GpH7-A5/GpH7-B3 variant Y300_07I/GpL16-k0 (antibody, human IgG1, kappa, position is EU numbering; also called He Ab) heavy 1: not shown heavy 2: not shown light: DIVMTQSPLSLPVTPGEPASISCQASESLVHSNRNTYLHWYLQKPGQSPQLLIYKVSNRFSGVPDRFSGSGSGTDFTLKISRVEAEDVGVYYCSQNTHVPPTFGQGTKVEIERTVAAPSVFIFPPSDEQLKSGTASVVCLLNNFYPREAKVQWKVDNALQSGNSQESVTEQDSKDSTYSLSSTLTLSKADYEKHKVYACEVTHQGLSSPVTKSFNRGEC	95.1 relative, control = 100	74.5 relative, control = 100	1.28 ratio
GpH7-A5/GpH7-B3 variant S324_19Q/GpL16-k0 (antibody, human IgG1, kappa, position is EU numbering; also called He Ab) heavy 1: not shown heavy 2: not shown light: DIVMTQSPLSLPVTPGEPASISCQASESLVHSNRNTYLHWYLQKPGQSPQLLIYKVSNRFSGVPDRFSGSGSGTDFTLKISRVEAEDVGVYYCSQNTHVPPTFGQGTKVEIERTVAAPSVFIFPPSDEQLKSGTASVVCLLNNFYPREAKVQWKVDNALQSGNSQESVTEQDSKDSTYSLSSTLTLSKADYEKHKVYACEVTHQGLSSPVTKSFNRGEC	88.5 relative, control = 100	66.8 relative, control = 100	1.33 ratio
GpH7-A5/GpH7-B3 variant Y296_20W/GpL16-k0 (antibody, human IgG1, kappa, position is EU numbering; also called He Ab) heavy 1: not shown heavy 2: not shown light: DIVMTQSPLSLPVTPGEPASISCQASESLVHSNRNTYLHWYLQKPGQSPQLLIYKVSNRFSGVPDRFSGSGSGTDFTLKISRVEAEDVGVYYCSQNTHVPPTFGQGTKVEIERTVAAPSVFIFPPSDEQLKSGTASVVCLLNNFYPREAKVQWKVDNALQSGNSQESVTEQDSKDSTYSLSSTLTLSKADYEKHKVYACEVTHQGLSSPVTKSFNRGEC	135 relative, control = 100	103 relative, control = 100	1.31 ratio
GpH7-A5/GpH7-B3 variant S324_16H/GpL16-k0 (antibody, human IgG1, kappa, position is EU numbering; also called He Ab) heavy 1: not shown heavy 2: not shown light: DIVMTQSPLSLPVTPGEPASISCQASESLVHSNRNTYLHWYLQKPGQSPQLLIYKVSNRFSGVPDRFSGSGSGTDFTLKISRVEAEDVGVYYCSQNTHVPPTFGQGTKVEIERTVAAPSVFIFPPSDEQLKSGTASVVCLLNNFYPREAKVQWKVDNALQSGNSQESVTEQDSKDSTYSLSSTLTLSKADYEKHKVYACEVTHQGLSSPVTKSFNRGEC	104 relative, control = 100	83.5 relative, control = 100	1.24 ratio
GpH7-A5/GpH7-B3 variant S324_12R/GpL16-k0 (antibody, human IgG1, kappa, position is EU numbering; also called He Ab) heavy 1: not shown heavy 2: not shown light: DIVMTQSPLSLPVTPGEPASISCQASESLVHSNRNTYLHWYLQKPGQSPQLLIYKVSNRFSGVPDRFSGSGSGTDFTLKISRVEAEDVGVYYCSQNTHVPPTFGQGTKVEIERTVAAPSVFIFPPSDEQLKSGTASVVCLLNNFYPREAKVQWKVDNALQSGNSQESVTEQDSKDSTYSLSSTLTLSKADYEKHKVYACEVTHQGLSSPVTKSFNRGEC	90.3 relative, control = 100	63.1 relative, control = 100	1.43 ratio
GpH7-A5/GpH7-B3 variant S298_14T/GpL16-k0 (antibody, human IgG1, kappa, position is EU numbering; also called He Ab) heavy 1: not shown heavy 2: not shown light: DIVMTQSPLSLPVTPGEPASISCQASESLVHSNRNTYLHWYLQKPGQSPQLLIYKVSNRFSGVPDRFSGSGSGTDFTLKISRVEAEDVGVYYCSQNTHVPPTFGQGTKVEIERTVAAPSVFIFPPSDEQLKSGTASVVCLLNNFYPREAKVQWKVDNALQSGNSQESVTEQDSKDSTYSLSSTLTLSKADYEKHKVYACEVTHQGLSSPVTKSFNRGEC	113 relative, control = 100	77.9 relative, control = 100	1.45 ratio
